The labels stand for the following.
B1: Rab11/Ypt32-7xHis (natural protein, S. cerevisiae, UniProt P51996 1-220, looked up)
chain: MSNEDYGYDYDYLFKIVLIGDSGVGKSNLLSRFTTDEFNIESKSTIGVEFATRTIEVENKKIKAQIWDTAGQERYRAITSAYYRGAVGALIVYDISKSSSYENCNHWLTELRENADDNVAVGLIGNKSDLAHLRAVPTDEAKNFAMENQMLFTETSALNSDNVDKAFRELIVAIFQMVSKHQVDLSGSGTNNMGSNGAPKGPTISLTPAPKEDKKKKSSN
notes: Ypt32 (yeast Rab11 paralog), S. cerevisiae; the C-terminal cysteines (residues 221 and 222) were substituted with the 7xHis tag; Made nucleotide-free with calf intestine alkaline phosphatase for the complex with TRAPPII; also called nucleotide-free Rab11/Ypt32; not shown: GST, N-terminal, cleaved; 7xHis, C-terminal, kept

What all share (test): cryo-EM structure; TRAPPII purified from yeast, incubated with tenfold molar excess of Rab11/Ypt32-7xHis and calf intestine alkaline phosphatase at 4°C overnight (nucleotide-free Rab), complex purified on Calmodulin Sepharose and by SEC; 10 mM tris (pH 8.0), 150 mM NaCl, 0.1% CHAPS, 1 mM Mg acetate, 1 mM dithiothreitol; single-particle cryo-EM
Holding throughout (settings): both partners purified
(Size exclusion chromatography separates by hydrodynamic size, large species first.)

In assay [1] the target is T1, Trs31 (TRAPP core subunit, in purified TRAPPII) (S. cerevisiae, UniProt Q03337 1-283).
T1 construct: Trs31, S. cerevisiae, endogenous; source: endogenous, purified from S. cerevisiae as a subunit of TRAPPII
T1 sequence (looked up): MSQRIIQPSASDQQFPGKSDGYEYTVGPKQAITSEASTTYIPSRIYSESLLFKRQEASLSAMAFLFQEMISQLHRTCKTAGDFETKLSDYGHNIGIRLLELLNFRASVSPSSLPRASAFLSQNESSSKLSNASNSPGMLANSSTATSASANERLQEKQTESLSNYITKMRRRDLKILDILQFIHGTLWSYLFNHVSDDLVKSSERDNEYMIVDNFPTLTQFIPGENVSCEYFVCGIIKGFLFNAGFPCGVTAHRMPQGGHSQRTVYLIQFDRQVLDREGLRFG

Assay [2] concerns the target T2, Trs120 (TRAPPII-specific subunit, in purified TRAPPII) (S. cerevisiae, UniProt Q04183 1-1289).
T2 construct: Trs120, S. cerevisiae, endogenous; also called Trs120 lid; source: endogenous, purified from S. cerevisiae as a subunit of TRAPPII
T2 sequence (looked up): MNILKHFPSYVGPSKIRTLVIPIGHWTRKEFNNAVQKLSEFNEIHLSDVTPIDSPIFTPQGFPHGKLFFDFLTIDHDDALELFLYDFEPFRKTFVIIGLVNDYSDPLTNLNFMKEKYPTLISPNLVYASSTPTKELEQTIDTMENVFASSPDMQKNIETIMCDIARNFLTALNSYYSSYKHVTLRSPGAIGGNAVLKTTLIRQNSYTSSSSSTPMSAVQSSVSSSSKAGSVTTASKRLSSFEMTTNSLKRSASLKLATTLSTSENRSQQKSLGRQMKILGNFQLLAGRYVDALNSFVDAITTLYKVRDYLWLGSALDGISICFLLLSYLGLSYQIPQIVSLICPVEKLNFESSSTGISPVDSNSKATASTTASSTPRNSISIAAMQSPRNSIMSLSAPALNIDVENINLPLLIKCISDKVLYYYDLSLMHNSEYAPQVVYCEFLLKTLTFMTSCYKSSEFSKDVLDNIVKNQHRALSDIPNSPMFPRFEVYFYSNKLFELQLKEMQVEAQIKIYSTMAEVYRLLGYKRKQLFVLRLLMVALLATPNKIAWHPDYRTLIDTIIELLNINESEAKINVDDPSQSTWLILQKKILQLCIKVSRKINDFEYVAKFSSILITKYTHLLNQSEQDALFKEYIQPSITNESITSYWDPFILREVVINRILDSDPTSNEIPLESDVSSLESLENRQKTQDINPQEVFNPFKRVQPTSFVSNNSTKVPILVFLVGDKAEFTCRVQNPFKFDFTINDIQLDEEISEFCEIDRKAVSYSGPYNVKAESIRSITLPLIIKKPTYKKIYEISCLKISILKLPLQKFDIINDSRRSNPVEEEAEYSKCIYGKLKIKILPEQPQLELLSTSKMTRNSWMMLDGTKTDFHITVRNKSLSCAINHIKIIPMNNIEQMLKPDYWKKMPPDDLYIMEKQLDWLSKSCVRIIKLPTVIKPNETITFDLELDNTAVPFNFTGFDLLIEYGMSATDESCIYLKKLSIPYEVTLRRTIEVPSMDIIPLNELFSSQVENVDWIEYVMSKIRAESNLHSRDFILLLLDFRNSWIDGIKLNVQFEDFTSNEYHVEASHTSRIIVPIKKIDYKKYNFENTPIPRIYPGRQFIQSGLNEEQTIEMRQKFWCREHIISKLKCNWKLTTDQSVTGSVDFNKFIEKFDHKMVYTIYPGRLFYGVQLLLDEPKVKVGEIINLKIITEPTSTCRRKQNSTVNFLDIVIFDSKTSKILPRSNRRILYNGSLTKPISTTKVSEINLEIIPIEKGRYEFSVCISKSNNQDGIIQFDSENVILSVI

Assay [3] addresses B1.

For B1, the binding result in assay [1] and in assay [2] was “binds” throughout.

B2: Bet5 (TRAPP core subunit, in purified TRAPPII) (natural protein, S. cerevisiae, UniProt Q03630 1-159, looked up)
chain: MGIYSFWIFDRHCNCIFDREWTLASNSASGTINSKQNEEDAKLLYGMIFSLRSITQKLSKGSVKNDIRSISTGKYRVHTYCTASGLWFVLLSDFKQQSYTQVLQYIYSHIYVKYVSNNLLSPYDFAENENEMRGQGTRKITNRNFISVLESFLAPMVNQ
notes: Bet5, S. cerevisiae, endogenous; source: endogenous, purified from S. cerevisiae as a subunit of TRAPPII
With B2, the binding result in assay [3] is recorded as “binds”.

B3: Trs20 (TRAPP core subunit, in purified TRAPPII) (natural protein, S. cerevisiae, UniProt P38334 1-175, looked up)
chain: MPQYFAIIGKKDNPVYEIEFTNAENPQGFPQDLKELNPFILHASLDIVEDLQWQINPTSQLNGNGGNGSNGGGGFLRSRAVNNTDNCYLGKVDHFYGLAITAYISYSGMKFVMIHGNSANSSVVIDDNNMRSFYQEVHELYVKTLMNPFYKITDPIRSPAFDSRVRTLARKHLSK
notes: Trs20, S. cerevisiae, endogenous; source: endogenous, purified from S. cerevisiae as a subunit of TRAPPII
For B3, the binding result in assay [2] is “binds”.

B4: Bet3 (TRAPP core subunit, in purified TRAPPII) (natural protein, S. cerevisiae, UniProt P36149 1-193, looked up)
chain: MVSTTQSRSLKAMGEEIWKNKTEKINTELFTLTYGSIVAQLCQDYERDFNKVNDHLYSMGYNIGCRLIEDFLARTALPRCENLVKTSEVLSKCAFKIFLNITPNITNWSHNKDTFSLILDENPLADFVELPMDAMKSLWYSNILCGVLKGSLEMVQLDCDVWFVSDILRGDSQTEIKVKLNRILKDEIPIGED
notes: Bet3, S. cerevisiae, endogenous; source: endogenous, purified from S. cerevisiae as a subunit of TRAPPII
For B4, in assay [3], the binding result was “binds”.

B5: Trs23 (TRAPP core subunit, in purified TRAPPII) (natural protein, S. cerevisiae, UniProt Q03784 1-219, looked up)
chain: MAIETILVINKSGGLIYQRNFTNDEQKLNSNEYLILASTLHGVFAIASQLTPKALQLTQQTNIENTIPYIPYVGMSSNRSDTRNGGGNNNKHTNNEKLGSFKGDDFFKEPFTNWNKSGLRQLCTDQFTMFIYQTLTGLKFVAISSSVMPQRQPTIATTDKPDRPKSTSNLAIQIADNFLRKVYCLYSDYVMKDPSYSMEMPIRSNLFDEKVKKMVENLQ
notes: Trs23, S. cerevisiae, endogenous; source: endogenous, purified from S. cerevisiae as a subunit of TRAPPII
Regarding B5, the binding result in assay [3] was “binds”.

The record behind these values is paper PMC9106297, “Structure of a TRAPPII-Rab11 activation intermediate reveals GTPase substrate selection mechanisms” (Science Advances, 2022).
